Measured values as given in PMC10264073, “Biological condensates form percolated networks with molecular motion properties distinctly different from dilute solutions” (eLife, 2023).

Key:
MBP-His6-GCN4-Dimer = assay: SEC-MALS; FPLC coupled with static light scattering; Superose 12 10/300 GL; 50 mM Tris pH 8.2, 100 mM NaCl, 1 mM EDTA, 2 mM DTT; loading concentration not shown
[1] = biological target: the molecule itself; assay: SEC-MALS; FPLC coupled with static light scattering; Superose 12 10/300 GL; 50 mM Tris pH 8.2, 100 mM NaCl, 1 mM EDTA, 2 mM DTT; loading concentrations 30 μM and 150 μM

stoichiometry N (MBP-His6-GCN4-Dimer) | Molecule | binding result [1]
2 | MBP-His6-GCN4-Dimer | –
– | PrLD-SAMWT fusion protein (FUS PrLD fused to the Shank3 SAM domain; MBP-PrLD-SAMWT-GB1) (other, UniProt P56959 1-212, looked up, FUS prion-like domain (PrLD), UniProt P56959, segment 1-212; SAM domain of Shank3 (aa 1654-1730), UniProt Q4ACU6, fused to the C-terminal end of PrLD; The light-scattering legend calls it only 'PrLD-SAMWT fusion protein (theoretical MW 80.7 kDa)'; also called PrLD-SAM chimera; source: E. coli BL21 (DE3), purified (Ni2+-NTA, size-exclusion chromatography); not shown: MBP, N-terminal, kept; GB1, …) CMASNDYTQQATQSYGAYPTQPGQGYSQQSSQPYGQQSYSGYGQSADTSGYGQSSYGSSYGQTQNTGYGTQSAPQGYGSTGGYGSSQSSQSSYGQQSSYPGYGQQPAPSSTSGSYGGSSQSSSYGQPQSGGYGQQSGYGGQQQSYGQQQSSYNPPQGYGQQNQYNSSSGGGGGGGGGNYGQDQSSMSGGGGGGGYGNQDQSGGGGGGYGGGQQGPRRPFQQKPLQLWSKFDVGDWLESIHLGEHRDRFEDHEIEGAHLPALTKEDFVELGVTRVGHRMNIERALRQLDGS | binds
